The values that follow come from patent US20230009539A1 (CLEVELAND CLINIC FOUNDATION, published 2023).

Test [1] addresses T1, IKKi (endogenous, HeLa cells) (human (HeLa cells), UniProt Q14164 1-716).
T1 sequence (looked up): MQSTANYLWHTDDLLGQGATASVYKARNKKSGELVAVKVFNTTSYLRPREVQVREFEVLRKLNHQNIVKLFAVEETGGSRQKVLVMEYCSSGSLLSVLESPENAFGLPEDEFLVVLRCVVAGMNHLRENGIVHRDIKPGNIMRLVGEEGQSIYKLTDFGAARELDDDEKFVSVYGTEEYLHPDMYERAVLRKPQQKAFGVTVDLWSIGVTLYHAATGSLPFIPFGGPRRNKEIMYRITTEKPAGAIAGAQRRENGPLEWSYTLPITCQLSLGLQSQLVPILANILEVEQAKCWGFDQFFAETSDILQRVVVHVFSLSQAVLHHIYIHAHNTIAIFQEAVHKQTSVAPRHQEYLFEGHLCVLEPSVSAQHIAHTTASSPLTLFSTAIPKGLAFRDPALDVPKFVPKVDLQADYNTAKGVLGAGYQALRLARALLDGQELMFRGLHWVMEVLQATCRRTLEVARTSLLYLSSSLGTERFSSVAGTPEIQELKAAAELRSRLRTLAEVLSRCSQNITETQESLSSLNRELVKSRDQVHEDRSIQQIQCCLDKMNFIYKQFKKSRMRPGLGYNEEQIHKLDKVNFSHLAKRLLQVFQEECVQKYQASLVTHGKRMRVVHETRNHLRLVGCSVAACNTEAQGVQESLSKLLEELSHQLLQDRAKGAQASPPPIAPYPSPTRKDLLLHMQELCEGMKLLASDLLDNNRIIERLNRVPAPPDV
In words: anti-Act1 immunoprecipitation from untreated and IL-17-treated HeLa cells (FIG. 4D). Here is the method:
(§1) Immunoblot, immunoprecipitation and nuclear fractionation: Cell were harvested and lysed on ice in a lysis buffer containing 0.5% Triton X-100, 20 mM Hepes pH 7.4, 150 mM NaCl, 12.5 mM-glycerophosphate, 1.5 mM MgCl2, 10 mM NaF, 2 mM dithiothreitol, 1 mM sodium orthovanadate, 2 mM EGTA, […], and 1 mM phenylmethylsulfonyl fluoride for 20 minutes, followed by centrifuging at 12,000 rpm for 15 minutes to extract clear lysates. For immunoprecipitation, cell lysates were incubated with 1 μg of antibody and A-sepharose beads at 4 degree overnight. After incubation, the beads were washed four times with lysis buffer and the precipitates were eluted with 2× sample buffer. Elutes and whole cell extracts were resolved on SDS-PAGE followed by immunobloting with antibodies. Nuclear fractionation was performed using NUCLEI EZ PREP kit purchased from Sigma in accordance with the manufacturer's instruction. Nuclear pellets were suspended in 30p1 of nuclear extraction buffer (20 mM HEPES, 400 mM NaCl, 1 mM EDTA, 1 mM EGTA in water, pH 7.9) containing freshly prepared 1 mM DTT and protease inhibitor cocktail. After 1.5 h incubation on ice bath with intermittent vortexing, extracts were centrifuged and supernatant was collected for immunoprecipitation.

Test [2] has as its target T2, TBK1 (endogenous, HeLa cells) (human (HeLa cells), UniProt Q9UHD2 1-729).
T2 sequence (looked up): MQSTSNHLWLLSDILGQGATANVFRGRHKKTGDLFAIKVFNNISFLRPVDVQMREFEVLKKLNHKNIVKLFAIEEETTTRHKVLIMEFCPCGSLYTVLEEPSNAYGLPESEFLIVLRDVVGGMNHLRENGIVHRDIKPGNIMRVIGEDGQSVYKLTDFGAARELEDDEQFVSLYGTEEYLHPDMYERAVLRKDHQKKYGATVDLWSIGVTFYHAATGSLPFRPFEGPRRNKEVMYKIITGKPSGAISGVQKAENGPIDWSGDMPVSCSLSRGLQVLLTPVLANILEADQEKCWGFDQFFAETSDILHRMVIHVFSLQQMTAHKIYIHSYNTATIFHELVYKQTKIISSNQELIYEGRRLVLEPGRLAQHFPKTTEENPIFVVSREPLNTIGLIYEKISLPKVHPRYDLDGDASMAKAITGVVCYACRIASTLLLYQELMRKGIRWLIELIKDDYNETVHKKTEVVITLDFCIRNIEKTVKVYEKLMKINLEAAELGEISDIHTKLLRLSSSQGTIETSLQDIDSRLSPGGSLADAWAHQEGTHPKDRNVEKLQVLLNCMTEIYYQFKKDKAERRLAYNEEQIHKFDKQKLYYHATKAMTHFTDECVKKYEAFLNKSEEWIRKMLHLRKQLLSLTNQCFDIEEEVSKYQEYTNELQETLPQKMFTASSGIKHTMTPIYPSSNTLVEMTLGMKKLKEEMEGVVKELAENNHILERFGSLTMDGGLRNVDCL
The test is described as above. Here is the method:
as §1

For test [3], the target named is T3, Dcp1 (endogenous, HeLa cells) (human (HeLa cells), UniProt Q9NPI6 1-582).
T3 construct: its constructs and phospho-antibody are Dcp1a; also called Dcp1 decapping enzyme; Dcp1a
T3 sequence (looked up): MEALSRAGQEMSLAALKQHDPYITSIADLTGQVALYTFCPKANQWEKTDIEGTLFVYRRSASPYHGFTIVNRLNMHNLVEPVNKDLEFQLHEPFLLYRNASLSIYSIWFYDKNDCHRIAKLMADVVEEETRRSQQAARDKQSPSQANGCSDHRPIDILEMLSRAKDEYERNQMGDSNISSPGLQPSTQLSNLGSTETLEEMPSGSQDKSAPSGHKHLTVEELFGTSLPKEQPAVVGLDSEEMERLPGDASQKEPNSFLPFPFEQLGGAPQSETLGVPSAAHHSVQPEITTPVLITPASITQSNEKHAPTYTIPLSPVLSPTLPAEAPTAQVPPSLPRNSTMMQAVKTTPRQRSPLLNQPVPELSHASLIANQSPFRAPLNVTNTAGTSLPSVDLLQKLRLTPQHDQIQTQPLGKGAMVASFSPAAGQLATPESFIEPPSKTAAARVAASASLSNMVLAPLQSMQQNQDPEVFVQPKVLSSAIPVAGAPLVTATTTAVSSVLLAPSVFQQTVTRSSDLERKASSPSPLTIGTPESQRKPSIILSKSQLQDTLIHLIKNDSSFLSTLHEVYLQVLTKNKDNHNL
In words: in situ proximity ligation assay with anti-Act1 and anti-Dcp1, endogenous proteins in HeLa cells, untreated or IL-17.

For the next test, the target named is T4, FLAG-hIRAK1 (human, UniProt P51617 1-712).
T4 construct: Negative control of the PLA; also called IRAK1-Flag; not shown: FLAG tag
T4 sequence (P51617 whole entry): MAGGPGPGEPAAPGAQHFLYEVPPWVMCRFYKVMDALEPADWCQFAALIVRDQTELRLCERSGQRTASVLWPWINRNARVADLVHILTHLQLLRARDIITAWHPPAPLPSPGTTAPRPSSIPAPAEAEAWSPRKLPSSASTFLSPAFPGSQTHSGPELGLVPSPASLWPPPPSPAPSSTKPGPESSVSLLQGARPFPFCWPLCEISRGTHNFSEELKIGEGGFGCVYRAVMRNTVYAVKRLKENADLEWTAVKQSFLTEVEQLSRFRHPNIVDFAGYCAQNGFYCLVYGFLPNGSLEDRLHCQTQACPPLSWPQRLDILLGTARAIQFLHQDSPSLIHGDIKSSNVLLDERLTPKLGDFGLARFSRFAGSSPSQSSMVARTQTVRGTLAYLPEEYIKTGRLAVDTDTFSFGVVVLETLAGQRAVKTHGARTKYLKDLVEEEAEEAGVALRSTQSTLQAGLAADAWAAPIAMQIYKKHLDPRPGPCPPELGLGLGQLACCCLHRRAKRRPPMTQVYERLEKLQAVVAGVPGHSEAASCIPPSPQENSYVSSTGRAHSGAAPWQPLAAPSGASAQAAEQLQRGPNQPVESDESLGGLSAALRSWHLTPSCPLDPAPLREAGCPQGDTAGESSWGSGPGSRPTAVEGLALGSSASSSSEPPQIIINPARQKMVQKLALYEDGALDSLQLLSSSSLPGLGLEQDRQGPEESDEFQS
In words: in situ proximity ligation assay (anti-Flag and anti-HA) in HeLa cells co-transfected with IRAK1-FLAG and Act1-HA (negative control).

The next test deals with T5, FLAG-hDcp1a (human, UniProt Q9NPI6 1-582).
T5 construct: also called Dcp1-Flag; FLAG-tagged Dcp1; not shown: FLAG tag
T5 sequence (looked up): T3 sequence (looked up)
In words: in situ proximity ligation assay (anti-Flag and anti-HA) in HeLa cells co-transfected with Dcp1-FLAG and Act1-HA.

In another test the target is T6, FLAG-hDcp2 (human, UniProt Q8IU60 1-420).
T6 construct: also called FLAG-tagged Dcp2; not shown: FLAG tag
In words: co-immunoprecipitation with anti-FLAG from transfected HeLa cells, HA blot.

B1: Act1 (endogenous, HeLa cells) (other, human (HeLa cells), UniProt O43734 1-574, looked up)
chain: MPPQLQETRMNRSIPVEVDESEPYPSQLLKPIPEYSPEEESEPPAPNIRNMAPNSLSAPTMLHNSSGDFSQAHSTLKLANHQRPVSRQVTCLRTQVLEDSEDSFCRRHPGLGKAFPSGCSAVSEPASESVVGALPAEHQFSFMEKRNQWLVSQLSAASPDTGHDSDKSDQSLPNASADSLGGSQEMVQRPQPHRNRAGLDLPTIDTGYDSQPQDVLGIRQLERPLPLTSVCYPQDLPRPLRSREFPQFEPQRYPACAQMLPPNLSPHAPWNYHYHCPGSPDHQVPYGHDYPRAAYQQVIQPALPGQPLPGASVRGLHPVQKVILNYPSPWDHEERPAQRDCSFPGLPRHQDQPHHQPPNRAGAPGESLECPAELRPQVPQPPSPAAVPRPPSNPPARGTLKTSNLPEELRKVFITYSMDTAMEVVKFVNFLLVNGFQTAIDIFEDRIRGIDIIKWMERYLRDKTVMIIVAISPKYKQDVEGAESQLDEDEHGLHTKYIHRMMQIEFIKQGSMNFRFIPVLFPNAKKEHVPTWLQNTHVYSWPKNKKNILLRLLREEEYVAPPRGPLPTLQVVPL
notes: Endogenous protein in cells or cell lysate; also called CIKS; endogenous Act1
B1: the binding result in test [1], in test [2] and in test [3] was “binds” in each case.

B2: HA-hAct1 (other, human, UniProt O43734 1-574, looked up)
chain: B1 chain
notes: Printed as HA-hAct1 in the constructs and Act1-HA in the legends; also called Act1-HA; not shown: HA tag
For the molecule B2, the figures for the binding result in the test with FLAG-hIRAK1 and with FLAG-hDcp1a were “no binding” and “binds”, respectively.

B3: HA-TBK1 (enzyme, not shown: small tags and cut ends)
chain: T2 sequence (looked up)
notes: also called HA-tagged TBK1
B3: the binding result with FLAG-hDcp2 is on record as “no binding”.
